System: H1650 cells
Experiment: PD-L1 immunocytochemistry (ICC), IFNγ modulation
Format: cell-based
Details: H1650 (NSCLC); 10 ng/mL human IFNγ, 24h; anti-PD-L1 clone E1L3N
Experimental: The human NSCLC cell line SKMES1 was grown in Eagle's Minimum Essential Medium (EMEM; ATCC #30-2003) with 10% Fetal Bovine Serum (FBS) and 1% Penicillin and Streptomycin (P/S). The human NSCLC H460, H1299 and H292 and melanoma cell lines MeWo, HMVII, A375 and CHL1 were grown in RPMI1640 medium with 10% FBS and 1% P/S and 1% sodium pyruvate. Cultured cells were harvested using Accutase, and the cell count and viability were determined using trypan blue dye exclusion. Other methods to collect cells, including scraping or other release can be used.
Between 15,000 to 20,000 cells were put into each chamber of 8-chambered ICC slides in 200 uL medium with or without 10 ng/mL human IFNγ. […] IFNγ can be readily replaced by other modulators discussed within. […] Cell lines can be readily switched for other sources of cells, including those isolated from xenografts or clinical samples and can be processed manually or using automated methods (e.g. on SnapPath).
Cells on the chambered slides were stained entirely at RT using the BioGenex RTU Detection System kit components (QD400) unless otherwise indicated. Other detection reagents and methods (e.g. multiplex immunocytochemistry, single of multiplex immunofluorescence, confocal, etc.), including automated staining methods, can be used readily. […] Ki67, T-EGFR or vimentin are provided as examples of positive controls, but others can be readily used. […]

B1: IFNγ: human IFNγ, modulator (10 ng/ml; Sigma Aldrich) (protein, UniProt P01579 24-161, looked up)
Interferon gamma: QDPYVKEAENLKKYFNAGHSDVADNGTLFLGILKNWKEESDRKIMQSQIVSFYFKLFKNFKDDQSIQKSVETIKEDMNVKFFNSNKKKRDDFEKLTNYSVTDLNVQRKAIHELIQVMAELSPAAKTGKRKRSQMLFRG
B1 was tested, and the “Immunocytochemical Score, PD-L1, IFNγ-Treated Cells” value was “Negative”.

— US20220347267A1, “METHODS TO IMPROVE PATIENT RESPONSE TO IMMUNE CHECKPOINT INHIBITORS AND FUNCTIONAL TESTS TO PREDICT RESPONSE” (Biomarker Strategies, LLC, priority 2019, published 2022)
